# Article PMC5207153, “Differential Receptor Binding and Regulatory Mechanisms for the Lymphangiogenic Growth Factors Vascular Endothelial Growth Factor (VEGF)-C and -D*^([image sbox.jpg])” (The Journal of Biological Chemistry, 2016)
# Where a chain is given by its changes, count along the chain named. Names may count otherwise.
# B1: VEGF-DΔNΔC (ligand, human, UniProt O43915 93-201, looked up)
# chain: FYDIETLKVIDEEWQRTQCSPRETCVEVASELGKSTNTFFKPPCVNVFRCGGCCNEESLICMNTSTSYISKQLFEISVPLTSVPELVPVKVANHTGCKCLPTAPRHPYS
# notes: human VEGF-D, residues 93-201 (recombinant form of mature VEGF-D); also called mature human VEGF-D; source: 293-F cells, transiently transfected; purified from conditioned medium on M2 (anti-FLAG) gel; not shown: FLAG, N-terminal, kept
# B2: VEGF-DΔNΔC L99A (ligand, human, UniProt O43915 93-201, looked up)
# chain: B1 chain with L7A
# notes: human VEGF-D, residues 93-201, L99A; source: 293-F cells, transiently transfected; purified from conditioned medium on M2 (anti-FLAG) gel; not shown: FLAG, N-terminal, kept
# B3: VEGF-DΔNΔC W106A (ligand, human, UniProt O43915 93-201, looked up)
# chain: B1 chain with W14A
# notes: human VEGF-D, residues 93-201, W106A; source: 293-F cells, transiently transfected; purified from conditioned medium on M2 (anti-FLAG) gel; not shown: FLAG, N-terminal, kept
# B4: VEGF-DΔNΔC D95A (ligand, human, UniProt O43915 93-201, looked up)
# chain: B1 chain with D3A
# notes: human VEGF-D, residues 93-201, Asp95 to alanine; source: 293-F cells, transiently transfected; purified from conditioned medium on M2 (anti-FLAG) gel; not shown: FLAG, N-terminal, kept
# B5: VEGF-DΔNΔC D103A (ligand, human, UniProt O43915 93-201, looked up)
# chain: B1 chain with D11A
# notes: human VEGF-D, residues 93-201, D103A; source: 293-F cells, transiently transfected; purified from conditioned medium on M2 (anti-FLAG) gel; not shown: FLAG, N-terminal, kept
# B6: VEGF-DΔNΔC I102A (ligand, human, UniProt O43915 93-201, looked up)
# chain: B1 chain with I10A
# notes: human VEGF-D, residues 93-201, I102A; source: 293-F cells, transiently transfected; purified from conditioned medium on M2 (anti-FLAG) gel; not shown: FLAG, N-terminal, kept
# B7: VEGF-DΔNΔC T98A (ligand, human, UniProt O43915 93-201, looked up)
# chain: B1 chain with T6A
# notes: human VEGF-D, residues 93-201, Thr98 to alanine; source: 293-F cells, transiently transfected; purified from conditioned medium on M2 (anti-FLAG) gel; not shown: FLAG, N-terminal, kept
# B8: VEGF-DΔNΔC E97A (ligand, human, UniProt O43915 93-201, looked up)
# chain: B1 chain with E5A
# notes: human VEGF-D, residues 93-201, Glu97 to alanine; source: 293-F cells, transiently transfected; purified from conditioned medium on M2 (anti-FLAG) gel; not shown: FLAG, N-terminal, kept
# B9: VEGF-DΔNΔC E105A (ligand, human, UniProt O43915 93-201, looked up)
# chain: B1 chain with E13A
# notes: human VEGF-D, residues 93-201, E105A; source: 293-F cells, transiently transfected; purified from conditioned medium on M2 (anti-FLAG) gel; not shown: FLAG, N-terminal, kept
# B10: VEGF-DΔNΔC F93A (ligand, human, UniProt O43915 93-201, looked up)
# chain: B1 chain with F1A
# notes: human VEGF-D, residues 93-201, Phe93 to alanine; source: 293-F cells, transiently transfected; purified from conditioned medium on M2 (anti-FLAG) gel; not shown: FLAG, N-terminal, kept
# B11: VEGF-DΔNΔC I96A (ligand, human, UniProt O43915 93-201, looked up)
# chain: B1 chain with I4A
# notes: human VEGF-D, residues 93-201, residue 96 (Ile) to alanine; source: 293-F cells, transiently transfected; purified from conditioned medium on M2 (anti-FLAG) gel; not shown: FLAG, N-terminal, kept
# B12: VEGF-DΔNΔC Y94A (ligand, human, UniProt O43915 93-201, looked up)
# chain: B1 chain with Y2A
# notes: human VEGF-D, residues 93-201, Y94A; source: 293-F cells, transiently transfected; purified from conditioned medium on M2 (anti-FLAG) gel; not shown: FLAG, N-terminal, kept
# Target: T1, Recombinant human VEGFR-3-Fc chimera (human, UniProt P35916 25-775)
# T1 construct: human VEGFR-3 part of the bought Fc chimera; source: bought: R&D Systems
# T1 sequence (looked up): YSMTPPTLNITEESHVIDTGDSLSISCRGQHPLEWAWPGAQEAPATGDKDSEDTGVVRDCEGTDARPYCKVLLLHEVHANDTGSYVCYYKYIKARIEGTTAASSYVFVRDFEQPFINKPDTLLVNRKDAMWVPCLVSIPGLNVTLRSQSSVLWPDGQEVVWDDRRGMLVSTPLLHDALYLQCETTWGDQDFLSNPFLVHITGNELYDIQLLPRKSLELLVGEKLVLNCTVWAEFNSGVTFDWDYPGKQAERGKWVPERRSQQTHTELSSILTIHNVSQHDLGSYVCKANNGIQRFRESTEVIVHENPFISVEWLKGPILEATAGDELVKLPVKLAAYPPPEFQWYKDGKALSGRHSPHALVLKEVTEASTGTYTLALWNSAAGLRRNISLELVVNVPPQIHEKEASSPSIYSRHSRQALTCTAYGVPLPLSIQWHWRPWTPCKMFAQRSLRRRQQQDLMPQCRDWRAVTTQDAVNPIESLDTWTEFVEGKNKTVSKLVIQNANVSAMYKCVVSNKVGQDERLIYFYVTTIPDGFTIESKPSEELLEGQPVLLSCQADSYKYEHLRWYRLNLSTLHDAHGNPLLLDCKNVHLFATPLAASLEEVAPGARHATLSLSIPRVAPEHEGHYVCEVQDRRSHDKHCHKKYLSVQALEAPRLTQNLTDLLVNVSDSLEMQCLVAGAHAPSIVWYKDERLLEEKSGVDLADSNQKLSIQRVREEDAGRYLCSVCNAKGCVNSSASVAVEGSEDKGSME
# Experiment: not given
# Conditions: not given
row,Molecule,titration of ligand in the bioassay of VEGFR-3 binding and cross-linking; potency relative to VEGF-DΔNΔC (Fig. 6C)
1,VEGF-CΔNΔC (from UniProt P49767 102-229) (ligand),10 fold

# Target: T2, Recombinant human VEGFR-2-Fc chimera (human, UniProt P35968 20-764)
# T2 construct: human VEGFR-2 part of the bought Fc chimera; source: bought: R&D Systems
# T2 sequence (P35968 20-764, change not shown): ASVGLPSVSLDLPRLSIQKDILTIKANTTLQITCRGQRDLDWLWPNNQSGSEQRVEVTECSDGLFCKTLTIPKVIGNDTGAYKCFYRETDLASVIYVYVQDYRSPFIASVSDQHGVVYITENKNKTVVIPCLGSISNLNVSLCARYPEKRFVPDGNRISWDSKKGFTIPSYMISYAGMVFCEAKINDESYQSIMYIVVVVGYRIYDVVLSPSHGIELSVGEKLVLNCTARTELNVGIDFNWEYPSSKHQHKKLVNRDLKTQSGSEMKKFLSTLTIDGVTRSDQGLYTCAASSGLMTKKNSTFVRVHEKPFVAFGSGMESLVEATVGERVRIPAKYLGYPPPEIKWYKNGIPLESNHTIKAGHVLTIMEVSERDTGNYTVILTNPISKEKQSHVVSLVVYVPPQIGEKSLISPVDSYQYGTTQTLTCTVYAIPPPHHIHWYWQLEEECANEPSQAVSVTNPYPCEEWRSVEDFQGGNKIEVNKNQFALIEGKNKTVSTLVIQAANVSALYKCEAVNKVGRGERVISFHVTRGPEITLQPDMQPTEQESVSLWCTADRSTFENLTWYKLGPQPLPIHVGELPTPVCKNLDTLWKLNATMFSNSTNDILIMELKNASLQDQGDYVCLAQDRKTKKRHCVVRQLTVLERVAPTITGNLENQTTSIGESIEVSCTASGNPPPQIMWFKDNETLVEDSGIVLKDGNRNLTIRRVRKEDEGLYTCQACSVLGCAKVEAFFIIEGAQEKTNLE
# Experiment: ELISA; plates coated with human VEGFR-2- or VEGFR-3-Fc chimera at 0.5 μg/ml in 100 mM carbonate buffer pH 9.5; blocked with 1% BSA in PBS, 0.1% Tween 20; 20 ng purified FLAG-tagged ligand in 100 μl PBS, 1 h, room temperature; bound ligand detected with M2-HRP; result as percent of VEGF-DΔNΔC
# Conditions: both partners purified
row,Molecule,binding result
1,B1,binds
2,B2,binds
3,B3,binds
4,B4,binds
5,B5,binds
6,B6,binds
7,B7,binds
8,B8,binds
9,B9,binds
10,B10,binds
11,B11,binds
12,B12,binds

# Target: T1, Recombinant human VEGFR-3-Fc chimera
# Experiment: as above
# Conditions: both partners purified
row,Molecule,binding result
1,B1,binds
2,B3,binds
3,B5,binds
4,B6,binds
5,B9,binds
